The subject of one test is normal rats. The experiment in a line: Acute intravenous infusion of equimolar FGF-23 polypeptides in anesthetized rats, renal clearance. Format: in vivo, rat. The note with it: for FENa (fractional excretion of sodium), control clearance / FEPi (fractional excretion of phosphate), control clearance: C = control clearance before infusion; for FENa (fractional excretion of sodium), control clearance / FEPi (fractional excretion of phosphate), control clearance / FENa (fractional excretion of sodium), experimental clearance / FEPi (fractional excretion of phosphate), experimental clearance: mean ± SE; for FENa (fractional excretion of sodium), experimental clearance / FEPi (fractional excretion of phosphate), experimental clearance: E = experimental clearance, i.v. infusion 1.24 nmol/kg/hour. As to the method:
Male Sprague Dawley rats weighing 300 g were purchased from Harlan Sprague Dawley Inc. (Madison Wis.). They were fed a standard rodent diet containing 0.7% phosphate and 0.5% calcium. All animals were fasted overnight prior to the experiment. On the day of the experiment, rats were anesthetized with an intraperitoneal injection of 100-150 mg/kg body weight of 5-sec-butyl-ethyl-2-thiobarbituricacid (Inactin, Byk Gulden Konstanz, Hamburg, Germany). The rats were placed on a heated table to maintain body temperature between 36-38° C. After a tracheostomy, a PE 50 catheter was placed in the left carotid artery to monitor mean arterial blood pressure (MAP) and to collect blood samples. Catheters were also placed in the left and right jugular veins for infusions. A solution containing 2% inulin in 0.9% NaCl plus 4.5% BSA was infused at a rate of 1.2 mL/hour in one catheter, and 0.9% NaCl was infused in the other catheter at a rate of 1.2 mL/hour. A catheter (PE 90) was placed in the bladder for urine collection. Acute infusion studies were performed using the following seven different groups of animals.
Group 1: Vehicle Time control (n=8). After a ninety-minute recovery period, one […] urine sample was taken (C1) and a blood sample was taken. One hour later a second 60-minute clearance was taken (C2).
Group 2: Effect of acute infusion of full length FGF-23 polypeptide (1.24 nmol/kg/hour, n=8). This protocol is identical to group 1 except that after the control collections, full-length recombinant FGF-23 polypeptide was added to the 0.9% saline infusion to deliver 1.24 nmol/kg/hour of full length FGF-23 polypeptide. After one hour of infusion, a sixty-minute clearance was taken.
Group 3: Effect of acute infusion of FGF-23(176-251) polypeptide (1.24 nmol/kg/hour, n=8). This protocol is identical to group 2 except for the sequence of the infused polypeptide.
Group 4: Effect of acute infusion of FGF-23(180-251) polypeptide (1.24 nmol/kg/hour, n=8). This protocol is identical to group 2 except for the sequence of the infused polypeptide.
Group 5: Effect of infusion of FGF-23(184-251) polypeptide (1.24 nmol/kg/hour, n=8). This protocol is identical to group 2 except for the sequence of the infused polypeptide.
Group 6: Effect of infusion of FGF-23(206-251) polypeptide (1.24 nmol/kg/hour, n=6). This protocol is identical to group 2 except for the sequence of the infused polypeptide.
Group 7: Effect of infusion of FGF-23(180-205) polypeptide (1.24 nmol/kg/hour, n=6). This protocol is identical to group 2 except for the sequence of the infused polypeptide.
(§1) Plasma and urine phosphate concentrations were determined using the method of Chen (Chen et al., Anal Chem., 28:1756-1758 (1956)). Inulin concentrations in plasma and urine were determined using the anthrone method (Führ et al., Klin. Wochenschr., 33.:729-730 (1955)). Sodium concentrations in urine were determined by ion selective electrode (EasyLyte Plus Analyzer, Medica Corp., Bedford, Mass.). Calcium concentrations were measured using atomic absorption spectrometry (Kumar et al., Biochemistry, 15:2420-2423 (1976)) with a Perkin Elmer Model 3300 Atomic Absorption Spectrometer (Perkin Elmer, Boston, Mass.). Serum 1α,25(OH)2D concentrations were measured using an RIA kit (Diasorin, Stillwater, Minn.).
Statistically significant differences between groups were evaluated by Student's t-test for comparison between two groups or by one-way analysis of variance (ANOVA) followed by Tukey's test for multiple comparisons. All values were expressed as mean±SE. A p value less than 0.05 was considered to be statistically significant.

In the next test the test system is Fgf-23−/− mice. The experiment in a line: Intraperitoneal injection into Fgf-23−/− mice, serum phosphate. The test is classed as in vivo, mouse. The method, then:
To further examine the in vivo phosphaturic activity of the smallest FGF-23 fragment, 0.2 nmoles of FGF-23(180-205) polypeptide were injected twice intraperitoneally into Fgf-23^−/− mice. FGF-23 R176Q polypeptide was similarly injected into the mutant mice as a positive control, and saline was injected as a vehicle control. Fgf-23^−/− animals were generated as reported elsewhere (Sitara et al., Matrix Biol., 23:421-432 (2004)). To determine the in vivo effects of the C-terminal fragment FGF23(180-205) in the absence of endogenous FGF-23 activity, equimolar amounts (0.2 nmoles) of FGF-23 R176Q polypeptide, FGF-23(180-205) polypeptide, and vehicle (saline) were injected twice intraperitoneally into Fgf-23^−/− mice at 0 and 8 hours. Blood was obtained by tail bleeding or cheek pouch puncture of 3- to 6-week-old Fgf-23^−/− animals, 8 hours after the second injection (at 16 hours). Serum levels of phosphate were determined in pre- and post-injection mice using the Stanbio LiquiUV kit (Stanbio Laboratory, Boerne, Tex.).

The test system of test [1] is opossum proximal tubular epithelial cells (OK). In words: OK cell Pi uptake assay. The test is classed as cell-based. As to the method:
The OK cell Pi uptake assay was performed as described by Bowe et al. (Biochem Biophys Res Commun., 284:977-981 (2001)).

The subject of the next test is NaPi IIa-V5. The experiment in a line: Surface expression of V5-tagged Na+-Pi IIa transporter in OK cells (immunofluorescence). The note with it: OK cells expressing V5-tagged transporter, three hour treatment. The test is classed as cell-based, opossum. As to the method: To assess the mechanism by which these agents altered phosphate transport, the surface expression of an epitope tagged sodium phosphate transporter, NaPi IIa-V5, was examined. An OK cell line stably expressing a VS-tagged Na+-Pi IIa transporter was generated as described elsewhere (Berndt et al., Pflugers Arch., 451:579-587 (2006)). The presence of the transporter on the cell surface of OK-N+-Pi-IIa-V5 cells was carried out using immunohistochemical methods and reagents described elsewhere (Berndt et al., Pflugers Arch., 451:579-587 (2006)).

A further test deals with rats. In words: Chronic (72 hour) intraperitoneal administration in rats, serum phosphate and 1α,25(OH)2D. The conditions noted are these: chronic (72 hour) administration, i.p. every 12 hours for three days. Format: in vivo, rat. The method, then: as §1
Chronic animal studies were performed to determine the effect of chronic (72 hour) administration of FGF-23(176-251) polypeptide (1.24 nmol/kg/hour, n=5) or vehicle (PBS+0.1% BSA, n=6) on serum phosphate and 1α, 25 (OH)2 D concentrations. Rats received an intraperitoneal injection of FGF-23(176-251) polypeptide in 0.5 mL of normal saline every 12 hours for three days. At the end of three days, the animals were anesthetized and a terminal blood sample was taken.

The mark [2] stands for this setting: acute i.v. infusion of equimolar doses, rats.
[3] abbreviates: listed as full length recombinant FGF-23 polypeptide.

Where “and” joins values, the source holds several entries; their conditions need not be identical. Identical values can stand only once.

With “FGF-23(206-251): synthetic FGF-23 fragment, residues 206-251, SEQ ID NO: 5 (CSQELPSAEDNSPMASDPLGVVRGGRVNTHAGGTGPEGCRPFAKFI; listed as Homo sapiens)”, in the test on normal rats, the “FENa (fractional excretion of sodium), control clearance” value stood at 0.19 ± 0.04%; the “FEPi (fractional excretion of phosphate), control clearance” value came to 22 ± 5%; the “FENa (fractional excretion of sodium), experimental clearance” value is 0.22 ± 0.05^ %; the “FEPi (fractional excretion of phosphate), experimental clearance” value is reported as 29 ± 2^ %. Also, in the test on normal rats (setting [2]), the “Effect on phosphate excretion (in words)” value is “did not increase” and the “Effect on sodium excretion (in words)” value is listed as “did not increase”.

For “FGF-23(180-205): synthetic FGF-23 fragment, residues 180-205, SAEDDSERDPLNVLKPRARMTPAPAS, SEQ ID NO: 6 (listed as Homo sapiens)”, in the test on normal rats, the “FENa (fractional excretion of sodium), control clearance” value was 0.4±0.1% and 0.39 ± 0.11%; the “FEPi (fractional excretion of phosphate), control clearance” value came to 10±2%; the “FENa (fractional excretion of sodium), experimental clearance” value was 1.0±0.2% and 1.01 ± 0.21 %; the “FEPi (fractional excretion of phosphate), experimental clearance” value was determined as 20±2%. Besides, in the test on normal rats (setting [2]), the “Effect on phosphate excretion (in words)” value is recorded as “increases phosphate excretion significantly”. The “Serum phosphate level post-injection” value in the test on Fgf-23−/− mice (0.2 nmoles i.p. at 0 and 8 hours, blood at 16 hours, p<0.01 vs pre-injection, in mg/dL (unit assumed)) is 10.95±0.62. Moreover, the “Serum phosphate level pre-injection” value in the test with Fgf-23−/− mice (before injection, in mg/dL (unit assumed)) is on record as 14.64±0.51.

B1: FGF-23(25-251): full-length recombinant human FGF-23(25-251) polypeptide expressed in E. coli, SEQ ID NO: 1 (protein, listed as Homo sapiens)
chain: YPNASPLLGSSWGGLIHLYTATARNSYHLQIHKNGHVDGAPHQTIYSALMIRSEDAGFVVITGVMSRRYLCMDFRGNIFGSHYFDPENCRFQHQTLENGYDVYHSPQYHFLVSLGRAKRAFLPGMNPPPYSQFLSRRNEIPLIHFNTPIPRRHTRSAEDDSERDPLNVLKPRARMTPAPASCSQELPSAEDNSPMASDPLGVVRGGRVNTHAGGTGPEGCRPFAKFI
For the molecule B1, the “Radiolabeled phosphorus uptake (in words)” value in test [1] is “directly inhibited”. Further, the “Amount of NaPiIIa-V5 detected on the cell surface (in words)” value in the test with NaPi IIa-V5 is “significant decreases”. Moreover, in the test with normal rats (listed as FGF-23 Full Length), the “FENa (fractional excretion of sodium), control clearance” value turned out to be 0.26 ± 0.14%; the “FEPi (fractional excretion of phosphate), control clearance” value is given as 14 ± 3%; the “FENa (fractional excretion of sodium), experimental clearance” value is 0.76 ± 0.15 %; the “FEPi (fractional excretion of phosphate), experimental clearance” value stood at 32 ± 5 %. Also, in the test on normal rats (setting [3]), the “FENa (fractional excretion of sodium), control clearance” value stood at 0.3±0.1%; the “FEPi (fractional excretion of phosphate), control clearance” value is 14±3%; the “FENa (fractional excretion of sodium), experimental clearance” value came out at 0.7±0.2%; the “FEPi (fractional excretion of phosphate), experimental clearance” value worked out at 32±5%. Further, the “FE Ca after infusion” value in the test with normal rats (acute i.v. infusion 1.24 nmol/kg/hour) worked out at 10.0±2.3%. For the same molecule, the “FE Ca before infusion” value in the test with normal rats (control period before infusion) worked out at 4.1±1.2%.

B2: FGF-23(176-251): synthetic FGF-23 fragment, residues 176-251, SEQ ID NO: 2 (peptide, listed as Homo sapiens)
chain: RHTRSAEDDSERDPLNVLKPRARMTPAPASCSQELPSAEDNSPMASDPLGVVRGGRVNTHAGGTGPEGCRPFAKFI
Turning to B2, in the test with normal rats, the “FENa (fractional excretion of sodium), control clearance” value was 0.90±0.15% and 0.87 ± 0.15%; the “FEPi (fractional excretion of phosphate), control clearance” value is recorded as 15±2%; the “FENa (fractional excretion of sodium), experimental clearance” value is recorded as 1.21±0.17%; the “FEPi (fractional excretion of phosphate), experimental clearance” value was determined as 33±2%. The “Effect on serum Pi concentrations (in words)” value in the test on Fgf-23−/− mice (given intraperitoneally) is “reduced”. The molecule further yielded a Serum phosphate concentration with rats (vehicle 2.19±0.11 mM, p=0.062) of 1.85 ± 0.12 mM. The “Serum 1α,25(OH)2D concentration” value in the test on rats (vehicle 114±7 pg/mL, p<0.05) came out at 76 ± 11 pg/mL.

B3: FGF-23(180-251): synthetic FGF-23 fragment, residues 180-251, SEQ ID NO: 3 (peptide, listed as Homo sapiens)
chain: SAEDDSERDPLNVLKPRARMTPAPASCSQELPSAEDNSPMASDPLGVVRGGRVNTHAGGTGPEGCRPFAKFI
As for B3, the “Radiolabeled phosphorus uptake (in words)” value in test [1] was “directly inhibited”. In addition, the “Amount of NaPiIIa-V5 detected on the cell surface (in words)” value in the test with NaPi IIa-V5 was “significant decreases”. For the same molecule, in the test with normal rats, the “FENa (fractional excretion of sodium), control clearance” value was 0.20±0.07% and 0.17 ± 0.07%; the “FEPi (fractional excretion of phosphate), control clearance” value was determined as 14±3%; the “FENa (fractional excretion of sodium), experimental clearance” value is 0.80±0.17% and 0.76 ± 0.17 %; the “FEPi (fractional excretion of phosphate), experimental clearance” value is listed as 26±3%. Besides, the “Effect on phosphate excretion (in words)” value in the test with normal rats (setting [2]) is given as “increases phosphate excretion significantly”.

B4: FGF-23(184-251): synthetic FGF-23 fragment, residues 184-251, SEQ ID NO: 4 (peptide, listed as Homo sapiens)
chain: DSERDPLNVLKPRARMTPAPASCSQELPSAEDNSPMASDPLGVVRGGRVNTHAGGTGPEGCRPFAKFI
As to B4, in the test on normal rats, the “FENa (fractional excretion of sodium), control clearance” value is 0.3±0.1% and 0.27 ± 0.09%; the “FEPi (fractional excretion of phosphate), control clearance” value turned out to be 16±3%; the “FENa (fractional excretion of sodium), experimental clearance” value is 0.6±0.16% and 0.63 ± 0.16 %; the “FEPi (fractional excretion of phosphate), experimental clearance” value stood at 28±3%. The “Effect on phosphate excretion (in words)” value with normal rats (setting [2]) was “increases phosphate excretion significantly”.

The values above are taken from patent publication US20100062984A1, “FGF-23 POLYPEPTIDES” (priority 2007, published 2010).
